Assay [1] concerns the target human C3b (human) (UniProt P01024). In words: BLI.
For assay [2] the target is unchanged.

Chain of human C3b (human) (P01024 23-667, chain 1 of 2): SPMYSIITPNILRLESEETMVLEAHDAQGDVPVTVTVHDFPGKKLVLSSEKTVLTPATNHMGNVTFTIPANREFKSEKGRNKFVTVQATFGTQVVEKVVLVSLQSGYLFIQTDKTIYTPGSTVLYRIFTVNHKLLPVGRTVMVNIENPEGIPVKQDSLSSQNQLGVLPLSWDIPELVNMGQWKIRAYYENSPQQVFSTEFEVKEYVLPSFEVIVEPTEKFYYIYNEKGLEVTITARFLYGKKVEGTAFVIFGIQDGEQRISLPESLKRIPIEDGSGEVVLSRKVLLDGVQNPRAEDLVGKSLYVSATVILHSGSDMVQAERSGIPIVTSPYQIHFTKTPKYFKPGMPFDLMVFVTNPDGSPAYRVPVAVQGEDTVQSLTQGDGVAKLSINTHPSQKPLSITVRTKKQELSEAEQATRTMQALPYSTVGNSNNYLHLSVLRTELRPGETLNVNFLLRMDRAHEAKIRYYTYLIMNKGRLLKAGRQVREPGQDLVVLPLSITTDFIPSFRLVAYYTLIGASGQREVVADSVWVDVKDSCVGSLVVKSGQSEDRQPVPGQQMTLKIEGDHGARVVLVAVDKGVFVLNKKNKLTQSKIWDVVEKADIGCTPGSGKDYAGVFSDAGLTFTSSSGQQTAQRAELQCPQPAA
Chain of human C3b (human) (P01024 749-1663, chain 2 of 2): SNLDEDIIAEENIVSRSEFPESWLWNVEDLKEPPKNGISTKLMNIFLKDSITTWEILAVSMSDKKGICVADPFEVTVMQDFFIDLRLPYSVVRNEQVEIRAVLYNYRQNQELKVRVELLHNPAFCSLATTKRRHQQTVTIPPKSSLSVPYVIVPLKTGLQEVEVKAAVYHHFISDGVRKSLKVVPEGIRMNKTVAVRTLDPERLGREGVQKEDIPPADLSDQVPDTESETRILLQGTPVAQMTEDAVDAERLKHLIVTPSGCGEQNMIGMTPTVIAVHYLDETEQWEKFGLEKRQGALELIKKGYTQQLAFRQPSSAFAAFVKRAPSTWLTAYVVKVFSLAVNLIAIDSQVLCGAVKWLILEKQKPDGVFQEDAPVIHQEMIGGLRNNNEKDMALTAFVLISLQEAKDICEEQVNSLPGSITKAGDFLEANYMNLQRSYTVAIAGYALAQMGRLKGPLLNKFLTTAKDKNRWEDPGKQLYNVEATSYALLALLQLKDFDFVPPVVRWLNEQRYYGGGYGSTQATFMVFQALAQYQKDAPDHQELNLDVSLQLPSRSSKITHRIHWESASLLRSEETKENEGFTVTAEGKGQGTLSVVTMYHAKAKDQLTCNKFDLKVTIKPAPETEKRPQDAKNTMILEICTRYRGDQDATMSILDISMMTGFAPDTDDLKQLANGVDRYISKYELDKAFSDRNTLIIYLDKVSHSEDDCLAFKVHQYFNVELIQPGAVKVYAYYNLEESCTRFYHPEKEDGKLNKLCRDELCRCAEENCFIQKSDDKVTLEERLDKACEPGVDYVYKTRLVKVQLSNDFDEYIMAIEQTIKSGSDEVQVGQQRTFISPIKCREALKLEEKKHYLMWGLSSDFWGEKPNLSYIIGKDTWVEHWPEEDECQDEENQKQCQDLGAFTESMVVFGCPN

For the substance “CG001, (CRIg-FH-IgG4 Fc) x2 (from UniProt Q9Y279 20-283; P08603 18-264) (Fc fusion)”, the dissociation constant Kd in assay [1] was 0.00424 µM. In assay [2], the AP-mediated hemolysis of rabbit erythrocytes (12% NHS), IC50 stood at 0.0889 µM; the AP-mediated hemolysis of rabbit erythrocytes (12% NHS), IC95 was 0.207 µM; the CP-mediated hemolysis of sheep erythrocytes (0.2% hemolysin, 1% NHS), IC50 came to 0.446 µM; the CP-mediated hemolysis of sheep erythrocytes (0.2% hemolysin, 1% NHS), IC95 is 34.2 µM.

The values are drawn from publication PMC11334799.
